Measurements from the PETadex activity labels (doi:10.1038/s41467-025-61599-z).

How the values were obtained:
[1] = Proxy for plastic degradation [UPLC/UHPLC]; details: pH 9
PET [2] = test: Proxy for plastic degradation [kcat/Km (catalytic efficiency)] (mM⁻¹s⁻¹); details: pH 8
PET [3] = test: Proxy for plastic degradation [Released monomer concentration (HPLC/LC-MS) (TPA+MHET)]

| Protein | Proxy for plastic degradation ([1]; 30 °C) [µM] | Proxy for plastic degradation ([1]; 40 °C) [µM] | Proxy for plastic degradation ([1]; 50 °C) [µM] | Proxy for plastic degradation ([1]; 55 °C) [µM] | Proxy for plastic degradation ([1]; 60 °C) [µM] | other results |
| --- | --- | --- | --- | --- | --- | --- |
| unnamed (protein) MRIRQALVAFCAAIAMVVAGPSYASALDSPYQRGPDPTEASVKAIAGPFAVDQVKATGHTGFGSGTIFYPKDEKGTFGTIAVSPGFISPEGLVHWYAKTLASHGFVVMAMGTFTVADPPPSRGDQLRAALDYMKTKSPVKDKVDPTRLGLSGHSMGGGGTLDAASKMPDLKAAVPLAPWYLTGGPVIPKVKAPTLVVGANIDFVAPMAIFATPFYKALTSPNKALLTLPGDHMTPFLLANPTLTKFAVSWFKRFLDDDTRYDQFLCPNPASYEGTCPLT | 11.2 | 22.8 | 44.2 | 26.1 | 19.7 | – |
| unnamed (protein) MTAAAVSSRYYEETGPHAVTVEQGGPDHTLYYPSDLGAGGTQHPVVIWGNGTGATPETYDEGLRHFASWGFVVAAANTTQAGSGKEMLAGARFLIEEDQRSGSVFYGKIDETRIGAAGHSQGGGGAIAAGADPIVDTTIPIQPGPQGTVGDLHGPAFFISGQFDWIVPSSYVYSRYLGADHVPAVFGELRGADHFFPGDTRLRLIGATTAWFRFHLMADENARGIFFGPSSTCGICTDTEAWSKVDRNAKAQAIPG | 13.9 | 14.7 | 10.6 | 15.5 | 15.3 | – |
| unnamed (protein) MNFPRASRLMQAAVLGGLMAVSAAATAQTNPYARGPNPTAASLEASAGPFTVRSFTVSRPSGYGAGTVYYPTNAGGTVGAIAIVPGYTARQSSINWWGPRLASHGFVVITIDTNSTLDQPSSRSSQQMAALRQVASLNGTSSSPIYGKVDTARMGVMGWSMGGGGSLISAANNPSLKAAAPQAPWNSSTNFSSVTVPTLIFACENDSIAPVNSHALPFYNSMSRNAKQFLEINGGSHSCANSGNSNQALIGKKGVAWMKRFMDNDTRYSTFACQNPNSTRVSDFRTANCS | 17.3 | 64.7 | 46.9 | 27.4 | 17.4 | – |
| unnamed (protein) MALVTALALVTGVGTAPAFADEIGQAPTAANITGDGSFSTSSSAIFGQSGFGGGTAYYPNTAGKYPVVAFAPGFLSDWNALNWLGPRVASWGFVVVGVNTNTPFDFPDARGDQLLAALNWAVNSAPAAVRDKADGSRRGVSGWSMGGGGTLEALAKDTTGTVKAGVPLAPWHTNKTWSKVTEPVFIIGGQNDSVAAPASHAIPFYNSLGGPKSYLERAGADHFFPTKSNGTVSRAVVSFFKRHVSADTRFTPFLCGFSGLDVSNFRSNSC | 65.5 | 759 | 3600 | 596 | 167 | Km (p-NP-C4; 50 °C): 1040 µM; kcat (p-NP-C4; 50 °C): 0.27 s⁻¹; kcat/Km (p-NP-C4; 50 °C): 260 M⁻¹ s⁻¹ |
| unnamed (protein) MQTNPYARGPNPTAASLEASAGPFTVRSFTVSRPSGYGAGTVYYPTNAGGTVGAIAIVPGYTARQSSIKWWGPRLASHGFVVITIDTNSTLDQPESRSSQQMAALRQVASLNGTSSSPIYGKVDTARMGVMGWSMGGGGSLISAANNPSLKAAAPQAPWHSSTNFSSVTVPTLIFACENDSIAPVNSSALPIYDSMSQNAKQFLEIKGGSHSCANSGNSNQALIGKKGVAWMKRFMDNDTRYSTFACENPNSTAVSDFRTANCS | – | – | – | – | – | Km (p-NP-C4; 50 °C, part of the chain shown): 1570 µM; kcat (p-NP-C4; 50 °C, part of the chain shown): 0.215 s⁻¹; kcat/Km (p-NP-C4; 50 °C, part of the chain shown): 137 M⁻¹ s⁻¹ |
| unnamed (protein) MDGVLWRVRTAALMAALLALAAWALVWASPSVEAQSNPYQRGPNPTRSALTADGPFSVATYTVSRLSVSGFGGGVIYYPTGTSLTFGGIAMSPGYTADASSLAWLGRRLASHGFVVLVINTNSRFDYPDSRASQLSAALNYLRTSSPSAVRARLDANRLAVAGHSMGGGGTLRIAEQNPSLKAAVPLTPWHTDKTFNTSVPVLIVGAEADTVAPVSQHAIPFYQNLPSTTPKVYVELDNASHFAPNSNNAAISVYTISWMKLWVDNDTRYRQFLCNVNDPALSDFRTNNRHCQ | – | – | – | – | – | Km (p-NP-C4; pH 8, 65 °C): 1050 µM; kcat (p-NP-C4; pH 8, 65 °C): 0.186 s⁻¹; kcat/Km (p-NP-C4; pH 8, 65 °C): 177 M⁻¹ s⁻¹; Proxy for plastic degradation (PET [2]): 0.208; Proxy for plastic degradation (PET [3]; 30 °C): 44.7 µM; Proxy for plastic degradation (PET [3]; 40 °C): 115 µM; Proxy for plastic degradation (PET [3]; 50 °C): 628 µM; Proxy for plastic degradation (PET [3]; 55 °C): 2030 µM; Proxy for plastic degradation (PET [3]; 60 °C): 2450 µM; Proxy for plastic degradation (PET [3]; 65 °C): 3150 µM |
